The series in a line: soluble on expression in E. coli; label from the status in PepcDB or PDB records.
With “MSAYKQANRLIHEKSPYLLQHAYNPVDWYPWCDEAFEKAKRENKPIFLSIGYSTCHWCHVMESESFEDEEVAEILNKNFVSIKVDREERPDIDSIYMTACQALTGHGGWPLTIIMTPDKKPFFAGTYFPKKDRMGMPGLISILKSVHNTWVNEKDSLAKYSSKVVSVISESIDDDYYYSVDEITEDIFEDAFSQFKYDFDNIYGGFGNAPKFPMPHNLYFLLRYWHKAKEEYALVMVEKTLDSMYSGGIYDHIGFGFCRYSTDEKWLVPHFEKMLYDNALLAIAYLETYQATKNKKYADIAKEIFTYVLRDMTSPEGGFYSAEDADSEGEEGKFYIWSPTEIKEVLGESDGEKFCKYYNITEEGNFEGLNIPNLINSTIPDEDKEFVELCRKKLFDHREKRVHPHKDDKILTAWNGLMIAALAIGGRVLGIEKYTLAAEKASEFIFSKLVRPDGRLLARYRDGEAAFLAYLDDYAFLIWALIELYETTYKPMYLKKAMELTNDMIKYFWDNKKGGLFIYGSDSEQLITRPKEIYDGAIPSGNSVAALNFLRLSRLTGQQELEEKAHQMFALFGSKIDSMPQGYAFFLTAMLFSKSKSNEVVLVGSNEKDTQNMLSILSEDFRPFTTSILYSEEHKDLKELIPFIDNYTTIENKPTAYVCENFVCHEPITDGALLREKLNR”, the “soluble on expression in E. coli” value is “soluble”. In the case of “MSSEIAYSNTNTNTENENRNTGAGVDVNTNANANANATANATANATANATAELNLPTVDEQRQYKVQLLLHINSILLARVIQMNNSLQNNLQNNINNSNNNNIIRIQQLISQFLKRVHANLQCISQINQGVPSAKPLILTPPQLANQQQPPQDILSKLYLLLARVFEIW” it was “not soluble”; in that of “MGSDKIHHHHHHMIKHHPHAELLQAHAQGELPLSMSMAVAAHCALCQECQNQIAKLTEQAAKLAFVSSSDDPVQHNASNEIDVVDNDPWQQMLSNIMALPESTMSEPYIESSVTVSHRNIRYQIPRVFRQHIALPWQQIGKVSRMRFDIDEKNTRASLLYIEALGEIPQHTHKGFELTLLLSGEFSDSTGNYVVGDFIILDGNTQHSPTTQTGCLCYTVLDAPLYFTKGISKLLNPIGELIY”, “not soluble”; in that of “MATCGRRDDILDLLKSLEQQTYKNFELIVVDQNDTPISDLFDEYKDKFSINYIYTPIKGLSRARNAGLKVADGDFIAFPDDDCIYEKNVLESILETFNSNKDVHFISTNTTNVEGTGSLIHAPNTDIILNNKYGFMGPSFTLFFTKQFVQDVGTFDEDLGVGSGTIYGAGEETDFVLRGMKQNYTGLFRKDLFVYHPVKEEIINEQSLKRAISYAGGFGRIIRLHYGFPYFLRAVAAATFRMTQNISNDKRKFHANRLRGIVRGYLK”, “not soluble”. Consider “MLIERIYDEDLAQASYFIGCQAHNTAVVVDPRRDIAVYLDMAKKNGMEIVGVTETHIHADYLSGTRELAAATNATMYVSGEGGADWQYEFDAERICDGSEIRLGNLVLTAVHTPGHTPEHLSFLLKDGAFADEPGFMLTGDFVFAGDLGRPDLLDEAAGGVDTRFEGARQMFKSLKEKFLTLPDHIQIFPGHGSGSACGKALGSVPSTTLGYERQFAWWGKYLEADDEQGFIDELLEGQPDAPAYFGRMKRQNRQGPAIMGARELLPQLEASDLHDVIVVDTRSADEVHQGTVAGAVNIPAGNSMAKFGSWTVDPEKDSRALVLLAASQIGAMEMWDHMVRVGIDNVAGFITNFDGVDLVAPQTVSPDQLDELEYDLLLDVRNRSEVEEGYIPGALHINGASVLWNLEKLPRDGKIVSYCKSGTRSSIAASTLRNAGFDVVELQGSYDNWVRHNAQLEHHHHHH”, for which the “soluble on expression in E. coli” value is listed as “not soluble”. In the case of “SIVKMLLFQETARHSRAEGEPGASHSGSKQDKVPSSEEGTGCDASVCEAAAATHCEKDVTVSDTENVSSSKNILSHDPDVGTDTMEKEEKTHHACQEMELKVDQSSESTNPTEAELSSETRQGLQLTSGDVGIDQFLRQGDEPKSVNSDASDPGSVRLEPLTPSEVLEYEATEILHDGDDPSANTSDTVSDQTGGSPGGSNPCRAETAVDLADGEERS” it was “soluble”; in that of “STRDDDDDEDDEEEEDSGAWGRESYAFDGFHPTEEFGFSFSPRGGMRFHGNFGFDDLVRDFNSIFSEMGAWTLPSHSPELPGPESETPGVRLREGQTLRDSMLKYPDSHQPRIFEGVLESHAKPESSKPAPDWGSQGPFHRLDDTWPVSPHSRAREDKDLDSQVSQEGLGPLLQPQPKSYFKSISVTKITKPDGTVEEHRTVVDGEGRRETTVTHQEAHDSSRSDPDPPRSSALDDPFSILDLLLGRWFRSR”, “soluble”. As for “MNFADIFSKIRRQQPSVKEAPNHWVKCQSCHALMYYKEIESCFNVCPKCNYHMRISADERIKLLSDEGSFIEYDANLEAIDPLKFVDSKSYKKRLSEGESKTGRKSSVISGECEINGLKTQLVVFDFSFMGGSLGSVEGEKIVRAIQRAITSKTSLVIVSASGGARMQESTYSLMQMSKTSAALKLLSKEKLPYISILTDPTMGGVSASFAWLGDLIIAEPEALVGFAGARVIKQTIGADLPEGFQKAEFLLEHGLIDAIVERGEQKQYLSDVLKFFSGKLEHHHHHH”, the entry is “not soluble”; as for “PISKMVTAHFVLIHTICHGAWIWHKLKPALERAGHKVTALDMAASGIDPRQIEQINSFDEYSEPLLTFLEKLPQGEKVIIVGEACAGLNIAIAADRYVDKIAAGVFHNSLLPDTVHSPSYTVEKLLESFPDWRDTEYFTFTNITGETITTMKLGFVLLRENLFTKCTDGEYELAKMVMRKGSLFQNVLAQRPKFTEKGYGSIKKVYIWTDQDKIFLPDFQRWQIANYKPDKVYQVQGGDHKLQLTKTEEVAHILQEVADAYA”, “soluble”; as for “MSEKLQVVTLLGSLRKGSFNGMVARTLPKIAPASMEVNALPSIADIPLYDADVQQEEGFPATVEALAEQIRQADGVVIVTPEYNYSVPGGLKNAIDWLSRLPDQPLAGKPVLIQTSSMGVIGGARCQYHLRQILVFLDAMVMNKPEFMGGVIQNKVDPQTGEVIDQGTLDHLTGQLTAFGEFIQRVKI”, “not soluble”. With “GPGSMAEAQARKRTESLSKMYSKTPISEGYALWDREYLLAAMRVFTFKAEGAPPFVLAPYLDSVAEITLQMHDLEDAAEQFAIAAGKYQLIDQKVLADLMRFKVTEVSSSAEIALEQVQAYLAAQDPQANGSGENSTVQTKSAFARVYAYLADLLLRSVDEEQASEAVLAQALTAAELAVQLGWDRDHCGWLLVGDVHAASGNYEKAKEAYGKALQRCPHYAKALERQIGVVQQLVRAADECGDDAGKATLNTELLTLLSRSIEVHPLANTFREKAFLLSEMHGDDAALAFVAETLEHPPQEEIEVIGSSAKEMTSTLLKAKAAILADGNQLDAALEAATKALEVDPNDEEAKSIIRDLHESMAA”, the “soluble on expression in E. coli” value is “soluble”.

Take “MEANKYKIGIIGSRDIILPFSMIGFDIFPAYQEQEAINTLRKLAQSDYGVIYITEDIASMILDTIRHYDSQVVPAIILLPTHKQGLNLGLKRIEDNVEKAVGHNILLEHHHHHH”: the “soluble on expression in E. coli” value was “not soluble”.

Regarding “MGSDKIHHHHHHMSAFNAVQVGRRVLAVEADALRVLADSLGEAFANAVETIFNAKGRVVCTGMGKSGHVARKIAATLASTGTQAMFVHPAEASHGDLGMIGPDDVVLALSKSGAGRELADTLAYAKRFSIPLIAMTAVADSPLGQAGDILLLLPDAPEGTAEVNAPTTSTTLQIALGDAIAVALLERRGFTASDFRVFHPGGKLGAMLRTVGDLMHGADELPLVAADAAMPDALLVMSEKRFGAVGVVDNAGHLAGLITDGDLRRHMDGLLTHTAGEVMTHAPLTIGPGALAAEALKVMNERRITVLFVVERERPVGILHVHDLLRAGVI”, the “soluble on expression in E. coli” value is recorded as “not soluble”. For the sequence “MSLLPRTTSVKPGEKFDVIIVGLGPAAYGAALYSARYMLKTLVIGETPGGQLTEAGIVDDYLGLIEIQASDMIKVFNKHIEKYEVPVLLDIVEKIENRGDEFVVKTKRKGEFKADSVILGIGVKRRKLGVPGEQEFAGRGISYCSVADAPLFKNRVVAVIGGGDSALEGAEILSSYSTKVYLIHRRDTFKAQPIYVETVKKKPNVEFVLNSVVKEIKGDKVVKQVVVENLKTGEIKELNVNGVFIEIGFDPPTDFAKSNGIETDTNGYIKVDEWMRTSVPGVFAAGDCTSAWLGFRQVITAVAQGAVAATSAYRYVTEKKGKK”, the “soluble on expression in E. coli” value is on record as “soluble”. In the case of “MKRFGRFAGIALVLVVAALTARSCFSHDLIVRLSDRKEISFKQMMGDLRKVAVIYVGEVHDNPDHHVLQLRIIRGLHRAGVPLAIGMEMFTAGSQQELDRWVAGQTGTAAFQRIYRREWNLPWSLYGDILLFARDKRIPLIGLNVPRDITRKVGREGFASLTEDERRKLPPNITCDVDESYMAMIHRSYSSHGLSANTFRNFCEAQMLWNKSMAYHMVEYLRKNPGRTVVVITGGGHAIRGGMPVQVDRERPGLSSRVVLPDPVVRNGRIKAEEADYLWLSHLEHHHHHH” it was “not soluble”. In the case of “RCPKGSKAYGSHCYALFLSPKSWTDADLACQKRPSGNLVSVLSGAEGSFVSSLVKSIGNSYSYVWIGLHDPTQGTEPNGEGWEWSSSDVMNYFAWERNPSTISSPGHCASLSRSTAFLRWKDYNCNVRLPYVCKFTD” it was “soluble”. As to “MSDVIFLRQYDDIDIVSSPSQNNIIFGHEAARHFLAQILKEERLPHAILFEGDYGIGKATLAFHLAWNILSSQKDGFKQPEHNSVIWRQITQGSHPGLLHISRRFDVKTQKFKTGILFDDIRDIIHFLNRTSKDSGWRIVIIDPADDMNRNAANAILKTLEEPPAKTLFIIITHFSGKLLPTIRSRCQQISLRPLHNDEMKKIIIHMFSNQNVIDEENIGMIIQKSNGNPRKAALLIHGGFEIIKTIDTLLGQSVCNPTIVHNLAQTLSSLSSVIQFQQFCDEILDKIQKKAIMLAERGNLALSKKCAQAWQEIHQEIGEIQSFNLDKKQFIINLLFRVHKIICESELFP”, the “soluble on expression in E. coli” value is given as “not soluble”.

On to “GMEMTKVTGKFDVKLTPENAYATGVGGVNLGRMALDKTFYGELEARSQGEMLSAMTAVKGSAGYVAIEQVVGKLCGRQGSFVLQHFGIMTDGQNRLHLEVVPHSGAGELTGLYGTMAISIENGQHFYEFSFCFEPASEVEG”, for which the “soluble on expression in E. coli” value is “soluble”. In the case of “EAAFWGASNELLHDPTMIKEGSSWYALGTGLTEERGLRVLKSSDAKNWTVQKSIFTTPLSWWSNYVPNYGQNQWAPDIQYYNGKYWLYYSVSSFGSNTSAIGLASSTSISSGGWKDEGLVIRSTSSNNYNAIDPELTFDKDGNPWLAFGSFWSGIKLTKLDKSTMKPTGSLYSIAARPNNGGALEAPTLTYQNGYYYLMVSFDKCCDGVNSTYKIAYGRSKSITGPYLDKSGKSMLEGGGTILDSGNDQWKGPGGQDIVNGNILVRHAYDANDNGIPKLLINDLNWSSGWPSY” it was “soluble”. As for “MRDVPNIGFISLGCPKNLVDSERILTELRSDGYNIIPSYENADLVIVNTCGFIDSAVQESLEAVGEALKENGKVIVTGCLGAKENQIREVHPKVLEITGPHSYEAVMQHVHKYVPRPERNMYTSLVPAQGVKLTPKHYAYLKISEGCDHRCTFCIIPSMRGDLDSRPIVQILDEAKRLADSGVKELLIVSQDTSAYALDQTKENQNKTVFWNGVPIKNNLISLCEQLATLGIWIRLHYVYPYPHVDNLIPLMAEGKILPYLDIPLQHASPKILKAMKRPGSIDRTLERIKQWREICPELTLRSTFIVGFPGETEEDFQMLLDFLTEAQLDRVGCFKFSPVDGAVATEMAEQVPEEVKEERFHRFMQVQQRISVARLQQKIGKTLAIIIDEIDEYGIIGRSMADAPEIDGVVYVDNISQQAVTVGQIILVTITNADEYDLWGTYLEHHHHHH”, the entry is “soluble”.

For the origin of these results see the DeepSol protein solubility set.
